Measured values reported in patent US8828401B2, “Cytotoxic peptides and antibody drug conjugates thereof” (Pfizer Inc., priority 2011, dated 2014).
Non-standard residues stand in square brackets, D forms with d. Residues, ends and D or L forms follow the SMILES beside them. *: point of attachment. Dolaproine = CO[C@@H]([C@@H]1CCCN1)[C@@H](C)C(=O)O; Dil = CC[C@H](C)[C@H](NC)[C@@H](CC(=O)O)OC; NMeαMePro = CN1CCC[C@@]1(C)C(=O)*

How the values were obtained:
Type in all cases: cell-based
BT474 (breast cancer) = experiment: In vitro cell assay, MTS cell viability 96 hours after treatment; conditions: Homo sapiens, BT-474, BT474 cells; geometric mean; cytotoxic peptides; read-out: BT474 GMEAN IC50
Outline: (§1)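 Cells are exposed to 3-fold dilution series (10 points, duplicate wells) of ADC or free compound lacking antibody. After 96 hours, an MTS assay quantifies viability relative to untreated cells.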

[1] = system: MDA-MB-361-DYT2 (breast cancer); experiment: as above; conditions: read-out: MDA-MB-361-DYT2 GMEAN IC50, MDA-MB-361-DYT2 cells; geometric mean; cytotoxic peptides
Outline: as §1

N87 (gastric cancer) = experiment: as above; conditions: read-out: N87 GMEAN IC50, N87 cells; geometric mean; cytotoxic peptides
Outline: as §1

[2] = system: MDA-MB-468 (breast cancer); experiment: In vitro cytotoxicity assay with anti-Notch ADCs (MTS); conditions: average of 2-4 repeats where ± S.E.M. is given
Method: (§2) The effects of anti-Notch ADCs were assessed on 1) cell lines endogenously expressing Notch protein: HCC2429 (lung cancer), OVCAR3 (ovarian cancer) and MDA-MB-468 (breast cancer), 2) cell lines engineered to over-express Notch protein: MDA-MB-468/hNotch and U2OS/hNotch, and 3) a negative control cell line (SW900) using an MTS cellular viability indicator (Promega, Madison, Wis.). These cell lines were cultured with increasing concentrations of anti-Notch ADCs comprising humanized anti-Notch antibodies, hu28 and hu75, and rat-human chimeric anti-Notch antibodies, ch28 and ch75, conjugated to various linker-payload combinations of the present invention. As a specificity control for the anti-Notch-ADCs, non-targeted control-ADCs (huNeg8.8-ADCs or ch2H6-ADCs) were also tested on the same cell lines. After four days, viability of each culture was assessed. IC50 values were calculated by logistic non-linear regression and presented as ng Ab/mL. The drug antibody ratio (DAR) is also provided.

HCC2429 (lung cancer) = experiment: as above; conditions: average of 2-4 repeats where ± S.E.M. is given
Method: as §2

OVCAR3 (ovarian cancer) = experiment: as above; conditions: average of 2-4 repeats where ± S.E.M. is given
Method: as §2

U2OS/hNotch = experiment: as above; conditions: average of 2-4 repeats where ± S.E.M. is given
Method: as §2

## CC[C@H](C)[C@@H]([C@@H](CC(=O)N1CCC[C@H]1[C@H](OC)[C@@H](C)C(=O)N[C@@H](Cc1ccccc1)C(=O)O)OC)N(C)C(=O)[C@@H](NC(=O)[C@]1(C)CCCN1C)C(C)C [#151, 1,2-dimethyl-L-prolyl-N-{(1S,2R)-4-{(2S)-2-[(1R,2R)-3-{[(1S)-1-carboxy-2-phenylethyl]amino}-1-methoxy-2-methyl-3-oxopropyl]pyrrolidin-1-yl}-2-methoxy-1-[(1S)-1-methylpropyl]-4-oxobutyl}-N-methyl-L-valinamide] (NMeαMePro-V[Dil][Dolaproine]F-OH)
BT474 (breast cancer)
  IC50: 84.9 nM
[1]
  IC50: 84.6 nM
N87 (gastric cancer)
  IC50: 62 nM

## CC[C@H](C)[C@@H]([C@@H](CC(=O)N1CCC[C@H]1[C@H](OC)[C@@H](C)C(=O)NCCC1C=CC=CC=C1)OC)N(C)C(=O)[C@@H](NC(=O)[C@]1(C)CCCCN1)C(C)C [#178, (2S)-N-[(2S)-1-{[(3R,4S,5S)-1-{(2S)-2-[(1R,2R)-3-{[2-(cyclohepta-2,4,6-trien-1-yl)ethyl]amino}-1-methoxy-2-methyl-3-oxopropyl]pyrrolidin-1-yl}-3-methoxy-5-methyl-1-oxoheptan-4-yl](methyl)amino}-3-methyl-1-oxobutan-2-yl]-2-methylpiperidine-2-carboxamide]
BT474 (breast cancer)
  IC50: 0.968 nM
[1]
  IC50: 0.911 nM
N87 (gastric cancer)
  IC50: 1.26 nM

B1: ch75-MalPeg6C2-8261 (conjugate)
VH: QVKLLQSGAALVKPGASVKMSCKASGYAFTDYWVTWVKQSHGKSLEWIGEISPNSGGTNFNEKFKGKATLTVDKSTSTAYMELSRLTSEDSAIYYCTRGEIRYNWFAYWGQGTLVTVSS
VL: DIQMTQSPSSLSASVGDRVTITCKASQNVGNNIAWYQQKPGKAPKLLIYYASNRYTGVPSRFSGSGYGTDFTLTISSLQPEDFATYYCQRLYNSPFTFGGGTKVEIK
[2]
  IC50 (ng Ab/mL) ± S.E.M.: 4255 ± 2375 ng Ab/mL

B2: ch28-mc0131 (conjugate)
VH: EVQLVESGGGLVQPGRSLTLSCVASGFTFRDYGMTWIRQAPGKGLTWVAYISSGSNYIYYAEAVKGRFTISRDNAKNTLYLQMTSLRSEDTALYFCTRRGPFVLDAWGQGASVTVSS
VL: DIQMTQSPSFLSASVGDRVTINCKASQSINRYLHWFQQKLGEAPKLLIYNANGLQTGIPSRFSGSGSGTDFTLTISSLQSEDVATYFCLQHNTWPDTFGAGTKLELK
HCC2429 (lung cancer)
  IC50 (ng Ab/mL) ± S.E.M.: 251 ± 77.5 ng Ab/mL
[2]
  IC50 (ng Ab/mL) ± S.E.M.: 35 ± 18.5 ng Ab/mL
OVCAR3 (ovarian cancer)
  IC50 (ng Ab/mL) ± S.E.M.: 6 ± 1.0 ng Ab/mL
U2OS/hNotch
  IC50 (ng Ab/mL) ± S.E.M.: 3 ± 0.5 ng Ab/mL

B3: ch75-mc0131 (conjugate)
VH: QVKLLQSGAALVKPGASVKMSCKASGYAFTDYWVTWVKQSHGKSLEWIGEISPNSGGTNFNEKFKGKATLTVDKSTSTAYMELSRLTSEDSAIYYCTRGEIRYNWFAYWGQGTLVTVSS
VL: DIQMTQSPSSLSASVGDRVTITCKASQNVGNNIAWYQQKPGKAPKLLIYYASNRYTGVPSRFSGSGYGTDFTLTISSLQPEDFATYYCQRLYNSPFTFGGGTKVEIK
HCC2429 (lung cancer)
  IC50 (ng Ab/mL) ± S.E.M.: 671 ± 406.5 ng Ab/mL
[2]
  IC50 (ng Ab/mL) ± S.E.M.: 8202 ± 2773.0 ng Ab/mL
OVCAR3 (ovarian cancer)
  IC50 (ng Ab/mL) ± S.E.M.: 289 ng Ab/mL
U2OS/hNotch
  IC50 (ng Ab/mL) ± S.E.M.: 19 ng Ab/mL

B4: ch28-me0131 (conjugate)
VH: EVQLVESGGGLVQPGRSLTLSCVASGFTFRDYGMTWIRQAPGKGLTWVAYISSGSNYIYYAEAVKGRFTISRDNAKNTLYLQMTSLRSEDTALYFCTRRGPFVLDAWGQGASVTVSS
VL: DIQMTQSPSFLSASVGDRVTINCKASQSINRYLHWFQQKLGEAPKLLIYNANGLQTGIPSRFSGSGSGTDFTLTISSLQSEDVATYFCLQHNTWPDTFGAGTKLELK
HCC2429 (lung cancer)
  IC50 (ng Ab/mL) ± S.E.M.: 30 ng Ab/mL
[2]
  IC50 (ng Ab/mL) ± S.E.M.: 24 ± 14.0 ng Ab/mL
OVCAR3 (ovarian cancer)
  IC50 (ng Ab/mL) ± S.E.M.: 8 ± 2.0 ng Ab/mL
U2OS/hNotch
  IC50 (ng Ab/mL) ± S.E.M.: 3 ± 1.15 ng Ab/mL

B5: ch75-me0131 (conjugate)
VH: QVKLLQSGAALVKPGASVKMSCKASGYAFTDYWVTWVKQSHGKSLEWIGEISPNSGGTNFNEKFKGKATLTVDKSTSTAYMELSRLTSEDSAIYYCTRGEIRYNWFAYWGQGTLVTVSS
VL: DIQMTQSPSSLSASVGDRVTITCKASQNVGNNIAWYQQKPGKAPKLLIYYASNRYTGVPSRFSGSGYGTDFTLTISSLQPEDFATYYCQRLYNSPFTFGGGTKVEIK
[2]
  IC50 (ng Ab/mL) ± S.E.M.: 259 ng Ab/mL

B6: ch28-mc3377 (conjugate)
VH: EVQLVESGGGLVQPGRSLTLSCVASGFTFRDYGMTWIRQAPGKGLTWVAYISSGSNYIYYAEAVKGRFTISRDNAKNTLYLQMTSLRSEDTALYFCTRRGPFVLDAWGQGASVTVSS
VL: DIQMTQSPSFLSASVGDRVTINCKASQSINRYLHWFQQKLGEAPKLLIYNANGLQTGIPSRFSGSGSGTDFTLTISSLQSEDVATYFCLQHNTWPDTFGAGTKLELK
[2]
  IC50 (ng Ab/mL) ± S.E.M.: 27 ± 11.3 ng Ab/mL
OVCAR3 (ovarian cancer)
  IC50 (ng Ab/mL) ± S.E.M.: 14 ± 5.5 ng Ab/mL
U2OS/hNotch
  IC50 (ng Ab/mL) ± S.E.M.: 3 ± 0.5 ng Ab/mL

B7: ch75-mc3377 (conjugate)
VH: QVKLLQSGAALVKPGASVKMSCKASGYAFTDYWVTWVKQSHGKSLEWIGEISPNSGGTNFNEKFKGKATLTVDKSTSTAYMELSRLTSEDSAIYYCTRGEIRYNWFAYWGQGTLVTVSS
VL: DIQMTQSPSSLSASVGDRVTITCKASQNVGNNIAWYQQKPGKAPKLLIYYASNRYTGVPSRFSGSGYGTDFTLTISSLQPEDFATYYCQRLYNSPFTFGGGTKVEIK
[2]
  IC50 (ng Ab/mL) ± S.E.M.: 560 ng Ab/mL

B8: ch28-MalPeg6C2-0131 (conjugate)
VH: EVQLVESGGGLVQPGRSLTLSCVASGFTFRDYGMTWIRQAPGKGLTWVAYISSGSNYIYYAEAVKGRFTISRDNAKNTLYLQMTSLRSEDTALYFCTRRGPFVLDAWGQGASVTVSS
VL: DIQMTQSPSFLSASVGDRVTINCKASQSINRYLHWFQQKLGEAPKLLIYNANGLQTGIPSRFSGSGSGTDFTLTISSLQSEDVATYFCLQHNTWPDTFGAGTKLELK
[2]
  IC50 (ng Ab/mL) ± S.E.M.: 10 ± 1.0 ng Ab/mL
OVCAR3 (ovarian cancer)
  IC50 (ng Ab/mL) ± S.E.M.: 10 ± 2.0 ng Ab/mL
U2OS/hNotch
  IC50 (ng Ab/mL) ± S.E.M.: 3 ± 0.85 ng Ab/mL

B9: ch28-mc8261 (conjugate)
VH: EVQLVESGGGLVQPGRSLTLSCVASGFTFRDYGMTWIRQAPGKGLTWVAYISSGSNYIYYAEAVKGRFTISRDNAKNTLYLQMTSLRSEDTALYFCTRRGPFVLDAWGQGASVTVSS
VL: DIQMTQSPSFLSASVGDRVTINCKASQSINRYLHWFQQKLGEAPKLLIYNANGLQTGIPSRFSGSGSGTDFTLTISSLQSEDVATYFCLQHNTWPDTFGAGTKLELK
[2]
  IC50 (ng Ab/mL) ± S.E.M.: 12147 ± 4806.4 ng Ab/mL

B10: ch28-MalPeg6C2-8261 (conjugate)
VH: EVQLVESGGGLVQPGRSLTLSCVASGFTFRDYGMTWIRQAPGKGLTWVAYISSGSNYIYYAEAVKGRFTISRDNAKNTLYLQMTSLRSEDTALYFCTRRGPFVLDAWGQGASVTVSS
VL: DIQMTQSPSFLSASVGDRVTINCKASQSINRYLHWFQQKLGEAPKLLIYNANGLQTGIPSRFSGSGSGTDFTLTISSLQSEDVATYFCLQHNTWPDTFGAGTKLELK
[2]
  IC50 (ng Ab/mL) ± S.E.M.: 83 ± 35.5 ng Ab/mL
